Results on one substance are retold here after paper PMC3167627.

The series addresses Mcm2EE-7 S164E;S170E (Saccharomyces cerevisiae) (UniProt P29469+P24279+P30665+P29496+P53091+P38132). As to the kind of experiment: gel filtration.

M13mp19 circular ssDNA yielded a binding signal (fold bound vs Mcm2WT-7 at 0.5 nM ssDNA) greater than 3.
